According to patent US20190361034A1:

What was measured:
[1] = molecular target: MHC class II molecules on MHC class II-expressing Raji cells (human); experiment: transfer cell ELISA, Raji cells; 125 ng/ml; plate row C
[2] = molecular target: MHC class II molecules on MHC class II-expressing Raji cells (human); experiment: transfer cell ELISA, Raji cells; 250 ng/ml; plate row D
[3] = molecular target: MHC class II molecules on MHC class II-expressing Raji cells (human); experiment: transfer cell ELISA, Raji cells; 1000 ng/ml; plate row D
[4] = molecular target: MHC class II molecules on MHC class II-expressing Raji cells (human); experiment: transfer cell ELISA, Raji cells; 31.25 ng/ml; plate row D
[5] = molecular target: MHC class II molecules on MHC class II-expressing Raji cells (human); experiment: direct ELISA, plate-immobilised Raji cells; 5% BSA, 2,500 cells; 125 ng/ml
[6] = molecular target: MHC class II molecules on MHC class II-expressing Raji cells (human); experiment: direct ELISA, plate-immobilised Raji cells; 10% FBS, 2,500 cells; 125 ng/ml
[7] = molecular target: MHC class II molecules on MHC class II-expressing Raji cells (human); experiment: direct ELISA, plate-immobilised Raji cells; 5% BSA, 10,000 cells; 125 ng/ml
[8] = molecular target: MHC class II molecules on MHC class II-expressing Raji cells (human); experiment: direct ELISA, plate-immobilised Raji cells; 5% BSA, 2,500 cells; 1000 ng/ml
[9] = molecular target: MHC class II molecules on MHC class II-expressing Raji cells (human); experiment: direct ELISA, plate-immobilised Raji cells; 10% FBS, 10,000 cells; 250 ng/ml
[10] = molecular target: MHC class II molecules on MHC class II-expressing Raji cells (human); experiment: direct ELISA, plate-immobilised Raji cells; 10% FBS, 2,500 cells; 62.5 ng/ml
[11] = molecular target: MHC class II molecules on MHC class II-expressing Raji cells (human); experiment: direct ELISA, plate-immobilised Raji cells; 5% BSA, 10,000 cells; 62.5 ng/ml
[12] = molecular target: MHC class II molecules on MHC class II-expressing Raji cells (human); experiment: direct ELISA, plate-immobilised Raji cells; 10% FBS, 5,000 cells; 31.25 ng/ml
[13] = molecular target: MHC class II molecules on MHC class II-expressing Raji cells (human); experiment: direct ELISA, plate-immobilised Raji cells; 5% BSA, 5,000 cells; 15.625 ng/ml
[14] = molecular target: MHC class II molecules on MHC class II-expressing Raji cells (human); experiment: direct ELISA, plate-immobilised Raji cells; 10% FBS, 5,000 cells; 15.625 ng/ml
[15] = molecular target: MHC class II molecules on MHC class II-expressing Raji cells (human); experiment: transfer cell ELISA, Raji cells; 3.906 ng/ml
[16] = molecular target: MHC class II molecules on MHC class II-expressing Raji cells (human); experiment: transfer cell ELISA, Raji cells; 31.25 ng/ml
[17] = molecular target: MHC class II molecules on MHC class II-expressing Raji cells (human); experiment: transfer cell ELISA, Raji cells; 7.813 ng/ml
[18] = molecular target: MHC class II molecules on MHC class II-expressing Raji cells (human); experiment: BLI; immobilised sample, Raji cells in solution; dark control of FIG. 23
[19] = molecular target: MHC class II molecules on MHC class II-expressing Raji cells (human); experiment: BLI; immobilised sample, Raji cells in solution; dark control of FIG. 24
[20] = molecular target: MHC class II molecules on MHC class II-expressing Raji cells (human); experiment: BLI; immobilised sample, Raji cells in solution; pH 7.0 control of FIG. 20
[21] = molecular target: MHC class II molecules on MHC class II-expressing Raji cells (human); experiment: BLI; immobilised sample, Raji cells in solution; pH 7.0 control of FIG. 21
[22] = molecular target: MHC class II molecules on MHC class II-expressing Raji cells (human); experiment: BLI; immobilised sample, Raji cells in solution; pH 7.0 control of FIG. 22
[23] = molecular target: MHC class II molecules on MHC class II-expressing Raji cells (human); experiment: direct ELISA, plate-immobilised Raji cells; 3% gelatin, 2,500 cells; 250 ng/ml
[24] = molecular target: MHC class II molecules on MHC class II-expressing Raji cells (human); experiment: direct ELISA, plate-immobilised Raji cells; 0.5% Casein, 2,500 cells; 125 ng/ml
[25] = molecular target: MHC class II molecules on MHC class II-expressing Raji cells (human); experiment: direct ELISA, plate-immobilised Raji cells; 0.5% Casein, 2,500 cells; 500 ng/ml
[26] = molecular target: MHC class II molecules on MHC class II-expressing Raji cells (human); experiment: direct ELISA, plate-immobilised Raji cells; 3% gelatin, 2,500 cells; 62.5 ng/ml
[27] = molecular target: MHC class II molecules on MHC class II-expressing Raji cells (human); experiment: direct ELISA, plate-immobilised Raji cells; 0.5% Casein, 10,000 cells; 250 ng/ml
[28] = molecular target: MHC class II molecules on MHC class II-expressing Raji cells (human); experiment: direct ELISA, plate-immobilised Raji cells; 0.5% Casein, 2,500 cells; 62.5 ng/ml
[29] = molecular target: MHC class II molecules on MHC class II-expressing Raji cells (human); experiment: direct ELISA, plate-immobilised Raji cells; 3% gelatin, 10,000 cells; 1000 ng/ml
[30] = molecular target: MHC class II molecules on MHC class II-expressing Raji cells (human); experiment: direct ELISA, plate-immobilised Raji cells; 0.5% Casein, 2,500 cells; 31.25 ng/ml
[31] = molecular target: MHC class II molecules on MHC class II-expressing Raji cells (human); experiment: direct ELISA, plate-immobilised Raji cells; 0.5% Casein, 5,000 cells; 31.25 ng/ml
[32] = molecular target: MHC class II molecules on MHC class II-expressing Raji cells (human); experiment: direct ELISA, plate-immobilised Raji cells; 3% gelatin, 2,500 cells; 15.625 ng/ml
[33] = molecular target: MHC class II molecules on MHC class II-expressing Raji cells (human); experiment: BLI; immobilised sample, Raji cells in solution; control of FIG. 19 (37° C., 1 day, no H2O2)

IMP321 treated with Peptide-N-Glycosidase F (PNGase F) (Fc fusion)
OD (ELISA signal) [1]: 0.166 OD | OD (ELISA signal) [2]: 0.361 OD | OD (ELISA signal) [3]: 1.13 OD | OD (ELISA signal) [4]: 0.049 OD | OD (ELISA signal) [5]: 0.415 OD | OD (ELISA signal) [6]: 1.12 OD | OD (ELISA signal) [7]: 0.395 OD | OD (ELISA signal) [8]: 1.83 OD | OD (ELISA signal) [9]: 0.762 OD | OD (ELISA signal) [10]: 0.329 OD | OD (ELISA signal) [11]: 0.283 OD | OD (ELISA signal) [12]: 0.304 OD | OD (ELISA signal) [13]: 0.274 OD | OD (ELISA signal) [14]: 0.327 OD

IMP321, recombinant soluble human LAG-3Ig fusion protein (Fc fusion)
OD (ELISA signal) [15]: 0.034 OD | OD (ELISA signal) [16]: 0.159 OD | OD (ELISA signal) [17]: 0.053 OD | Bioactivity (binding) [18]: 100% | Bioactivity (binding) [19]: 100% | Bioactivity (binding) [20]: 126% | Bioactivity (binding) [21]: 95% | Bioactivity (binding) [22]: 94% | OD (ELISA signal) [23]: 1.95 OD | OD (ELISA signal) [24]: 0.163 OD | OD (ELISA signal) [25]: 0.18 OD | OD (ELISA signal) [26]: 0.399 OD | OD (ELISA signal) [27]: 0.241 OD | OD (ELISA signal) [28]: 0.135 OD | OD (ELISA signal) [29]: 1.97 OD | OD (ELISA signal) [30]: 0.149 OD | OD (ELISA signal) [31]: 0.143 OD | OD (ELISA signal) [32]: 0.295 OD | Bioactivity (binding) [33]: 85%
